Reference: paper PMC3607624 (Journal of molecular biology, 2011)

Columns and labels:
[1] = target: F-actin (UniProt P68135 1-377); assay: co-sedimentation
[2] = target: microtubules (tubulin heterodimer) (UniProt P02550 1-451); assay: co-sedimentation
Sequence of microtubules (tubulin heterodimer) (P02550 whole entry, chain 1 of 2): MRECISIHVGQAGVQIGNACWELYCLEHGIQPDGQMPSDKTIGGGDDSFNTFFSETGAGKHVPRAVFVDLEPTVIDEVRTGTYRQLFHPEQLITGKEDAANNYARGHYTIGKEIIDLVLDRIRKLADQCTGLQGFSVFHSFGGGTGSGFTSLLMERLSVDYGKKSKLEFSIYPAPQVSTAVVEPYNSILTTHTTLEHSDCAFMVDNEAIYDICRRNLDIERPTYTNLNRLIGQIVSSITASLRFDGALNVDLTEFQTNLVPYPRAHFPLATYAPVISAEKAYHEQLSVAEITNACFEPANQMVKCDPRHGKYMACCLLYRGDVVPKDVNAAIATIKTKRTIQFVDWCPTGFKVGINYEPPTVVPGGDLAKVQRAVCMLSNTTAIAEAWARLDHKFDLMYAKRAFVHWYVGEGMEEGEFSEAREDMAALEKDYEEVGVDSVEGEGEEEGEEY
Sequence of microtubules (tubulin heterodimer) (P02554 whole entry, chain 2 of 2, further chain): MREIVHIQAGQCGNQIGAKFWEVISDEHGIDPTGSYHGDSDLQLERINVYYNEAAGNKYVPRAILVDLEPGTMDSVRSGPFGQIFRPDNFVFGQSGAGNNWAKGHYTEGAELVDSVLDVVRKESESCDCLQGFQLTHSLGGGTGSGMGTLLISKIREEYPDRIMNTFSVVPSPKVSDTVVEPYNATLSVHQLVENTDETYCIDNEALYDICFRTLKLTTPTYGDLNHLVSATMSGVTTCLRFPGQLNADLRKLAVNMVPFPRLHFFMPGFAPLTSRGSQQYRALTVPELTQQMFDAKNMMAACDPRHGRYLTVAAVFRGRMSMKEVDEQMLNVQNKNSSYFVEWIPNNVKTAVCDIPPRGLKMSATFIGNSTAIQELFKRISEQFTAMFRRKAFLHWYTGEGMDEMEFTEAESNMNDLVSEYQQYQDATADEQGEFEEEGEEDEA

Kd [1]: 13.7 ± 2.6 µM
Kd [2]: 1.7 ± 0.5 µM
B1: Dictyostelium myosin 7 N-terminal MyTH4/FERM domain (MF1) (domain or fragment, Dictyostelium discoideum, UniProt Q9U1M8 1085-1620, looked up)
chain: SATATGNNTPNSSSASASQSTNQVNPQPTVSVVELPQILNDEEISLYSFYDYANKNFNIEKLKQKDDIFSYQKSHIKSSLLVHSDAEQTKVAVEIFSKVLHYMNSNPLVSKKDPADFYSPVKFILTKGLAIESLRDEIYCQLIKQSTSNPIQDLNIRVWELIHFTCSTFPPTRKLIKYFAAYLKTTIQQSDVSKSVKDSAQASYFILQRFTLNGARKQVPSVTELESIKENRPIFVRITATDGSLKGLHIDSATTCQESSNDLSQRSRMRVNSKENGFTIIESFNGIERDIAPTDKLCDVLSKVENLQATLSSKIQVNFKFVFKKKLFFDNITNNVPTTSINVENEFYYHQLFNDLFNSNYCKDQDYQISIGSLKLQFESSDYTDEIRAWLPGNGRGKYFTTDIEKNRFDDFINKYKSHKGLSPEDAKKQMVQLLEKHPLANCSLVVCEHQSESLPYPKNFVLALNVNGINIYDPATSKMLESVKYSNQSQQNLKSDDKSVSIILENKSTLQAFTGDVQKLVSLIKEYSLYLRNNA
